{"source": "patent US9360486B2", "about": "“Allergen fragments” (Biomay AG, priority 2007, dated 2016)", "key": {"[1]": {"tested_on": "IgE of sera from ragweed pollen allergic patients", "assay": "IgE dot-blot / non-denaturing IgE binding of recombinant Amb a 1.3", "parameters": "species or system human", "conditions": "sera from 17 ragweed pollen allergic patients", "text": "E. coli-produced rAmb a 1.3 was purified as described above and dotted on nitrocellulose membranes.\nThus, another approach for producing recombinant reagents with full IgE-binding activity was pursued, as described in section 4. Despite its low IgE-binding activity, rAmb a 1.3 was successfully used in vitro for T cell epitope mapping and proliferation assays, as correct folding is not essential for T cell recognition (see example 2)."}, "[2]": {"tested_on": "IgE of sera from ragweed pollen allergic patients", "assay": "SDS-PAGE IgE immunoblot with patients' sera", "type": "binding, human", "conditions": "standard procedure for SDS-PAGE/immunoblotting", "method": "Membrane strips were incubated with sera from ragweed pollen allergic patients (lanes 1-29) or with serum from a non-allergic donor (lane C). Bound IgE was detected with ^125I-labeled goat anti-human IgE. Ragweed pollen-sensitized patients were recruited in Austria (lanes 1-13) or in Italy (lanes 14-29).\nThe proteins were analyzed via SDS-PAGE using 15% acrylamide gels and 0.1% Coomassie staining with a molecular weight standard RPN 756 (GE Healthcare Life Sciences). Sera from allergic patients were tested for positive IgE-reactivity. rAmb a 1 and rArt v 6 were separated on 15% (w/w) polyacrylamide gels and electroblotted onto a PVDF membrane. After blocking the non-specific protein binding sites with Blocking buffer (per L: 7.5 g Na2HPO4, 1 g NaH2PO4, 5 g BSA and 5 mL Tween 20), the membrane was incubated with patients' sera (diluted 1:10 in Blocking buffer) for more than 6 hours at room temperature. The membrane was washed for at least 30 minutes with Blocking buffer before it was incubated with radiolabeled [^125 I]-anti human IgE (RAST, 5 µCi, MedPro) diluted in Blocking buffer (1:40) overnight at room temperature. After a second 30-minute wash, the membrane was placed onto an imaging plate. The screen was exposed for at least 24 hours and developed using a PhosphoImager Bas-1800 II scanner for detection and the instrument's supporting software (Fujifilm).\nnAmb a 1 undergoes spontaneously proteolysis during purification and it is cleaved into two chains, alpha and beta chain, respectively."}, "[3]": {"tested_on": "Amb a 1-specific TCL and TCC", "assay": "Proliferation of Amb a 1-specific TCL and TCC with allergens and chains", "type": "cell-based, human", "conditions": "PBMC, TCL and TCC; different concentrations", "method": "Peripheral blood mononuclear cells (PBMC) were isolated from heparinized blood of allergic patients by Ficoll density gradient centrifugation. To generate allergen-specific T cell lines (TCL) and T cell clones (TCC), 1.5×10^6 PBMC were stimulated with optimal doses of ragweed or mugwort extract (4 μg/ml) or rAmb a 1.3 (10 μg/ml) in 24-well flat-bottomed culture plates (Costar, USA). After 5 days human rIL-2 (10 U/ml, Boehringer, Mannheim, Germany) were added and cultures were continued for additional 7 days. Then, T cell blasts were isolated by density centrifugation. The majority of T cell blasts was further expanded with IL-2 and irradiated PBMC. A small number of T cell blasts were used to establish monoclonal T cell cultures by limiting dilution: 0.3 T cells/well were seeded into 96 well round bottom plates (Nunclone) in the presence of 2×10^5 irradiated (60 Gy) PBMC, 0.25% v/v PHA (Gibco, USA) and rIL-2 (4 U/well) in the medium mentioned above. After 14-21 days, growing microcultures were expanded at weekly intervals with irradiated PBMC and rIL-2. The specificity of TCC was assessed in proliferation assays using irradiated allogeneic or HLA-matched PBMC or irradiated EBV-transformed allogeneic B-cells and 5 μg/ml Amb a 1.3. After 48 hours, cellular uptake of tritiated (^3H)-thymidine was performed to measure proliferation in counts per minute (cpm). When the stimulation index (SI; ratio between cpm obtained in cultures containing TCC plus autologous APC plus antigen, and cpm obtained in cultures containing TCC and APC alone) was >10, responses were considered as positive. Allergen-specific TCC were expanded by alternating turns of stimulation with autologous irradiated APC and allergen or with allogeneic feeder cells and rIL-2.\nProliferation and cytokine responses were determined.\nWhen compared with the results of the T cell epitope recognition in Table 3, 45/46 patients (98%) would recognize one or more epitopes in the Amb a 1 alpha-chain. […]"}, "[4]": {"tested_on": "Amb a 1-specific TCL and TCC", "assay": "Cytokine production in TCL and TCC (ELISA of supernatants)", "type": "cell-based, human", "method": "T cells were washed and incubated with irradiated autologous APC in the presence of the stimulant (5 μg/ml) for 48 hours. Cytokine levels in the resulting supernatants were measured in ELISA using matched antibody pairs (Endogen, USA) (sensitivity limits: IL-4: 9 pg/ml, IFN-γ: 9 pg/ml). Cultures containing TCC and APC alone served as negative controls. TCC with a ratio of IFN-γ/IL-4>10 were classified as Th1, 0.1-10 as Th0 and <0.1 as Th2. […] Proliferation and cytokine responses were determined."}}, "note": "Entries after “also recorded” stand apart in the source; their conditions may differ.", "data": [{"molecule": "rAmb a 1.3: E. coli-produced full-length recombinant Amb a 1.3 isoform (R2 clone) (protein, left off: things letters cannot carry) AEGVGEILPSVNETRSLQACEALNIIDKCWRGKADWENNRQALADCAQGFAKGTYGGKWGDVYTVTSNLDDDVANPKEGTLRFAAAQNRPLWIIFKNDMVINLNQELVVNSDKTIDGRGVKVEIINGGLTLMNVKNIIIHNINIHDVKVLPGGMIKSNDGPPILRQASDGDTINVAGSSQIWIDHCSLSKSFDGLVDVTLGSTHVTISNCKFTQQSKAILLGADDTHVQDKGMLATVAFNMFTDNVDQRMPRCRFGFFQVVNNNYDRWGTYAIGGSSAPTILCQGNRFLAPDDQIKKNVLARTGTGAAESMAWNWRSDKDLLENGAIFVTSGSDPVLTPVQSAGMIPAEPGEAAIKLTSSAGVFSCHPGAPC", "values": [{"measurement": "IgE reactivity in non-denaturing assays (dot blot, ELISA)", "setting": "[1]", "value": "not able to bind human IgE; also recorded: very weak or no IgE reactivity"}, {"measurement": "reaction with patients IgE after reduction and heat treatment", "setting": "[2]", "value": "reacted with patients IgE"}, {"measurement": "T cell proliferation compared with natural Amb a 1", "setting": "[3]", "value": "comparable T cell proliferations"}, {"measurement": "cytokine production compared with ragweed extract (FIG. 5) or natural Amb a 1 (FIG. 6)", "setting": "[4]", "value": "comparable cytokine production"}]}]}
